This passage reports protein production results from a protein production outcome set (Wang et al. 2014).

This data set in a line: label from the status in PepcDB records.

Regarding “MKSAVEQLSTYKSVHLNPRNIQTHFIGIPLIIWSAFLLFATIRIPLGDADNVNLGMILAIGIMLYYLRLHAKLALGLALFLAPVIYTTELVAHSENAFGLAITVFIVGWIFQLIGHRYEKAKPAFVDDLNQLLIGPFFLMAEVYFMLGLEKQLNAEITPIAIEKRRALEAHLKTK”, the protein production entry is “failed”.

For the sequence “MKSAYIFFNPKSGKDEQALAKEVKSYLIEHDFQDDYVRIITPSSVEEAVALAKKASEDHIDLVIPLGGDGTINKICGGVYAGGAYPTIGLVPAGTVNNFSKALNIPQERNLALENLLNGHVKSVDICKVNDDY”, the protein production entry is recorded as “failed”.

Turning to “MKSILDGLADTTFRTITTDLLYVGSNDIQYEDIKGDMASKLGYFPQKFPLTSFRGSPFQEKMTAGDNPQLVPADQVNITEFYNKSLSSFKENEENIQCGENFMDIECFMVLNPSQQLAIAVLSLTLGTFTVLENLLVLCVILHSRSLRCRPSYHFIGSLAVADLLGSVIFVYSFIDFHVFHRKDSRNVFLFKLGGVTASFTASVGSLFLTAIDRYISIHRPLAYKRIVTRPKAVVAFCLMWTIAIVIAVLPLLGWNCEKLQSVCSDIFPHIDETYLMFWIGVTSVLLLFIVYAYMYILWKAHSHAVRMIQRGTQKSIIIHTSEDGKVQVTRPDQARMDIRLAKTLVLILVVLIICWGPLLAIMVYDVFGKMNKLIKTVFAFCSMLCLLNSTVNPIIYALRSKDLRHAFRSMFPSCEGTAQPLDNSMGDSDCLHKHANNAASVHRAAESCIKSTVKIAKVTMSVSTDTSAEAL”, the protein production entry is given as “not failed”.

Turning to “MKSILEQLSSITVVVADTGDLDAIKKFQPRDATTNPSLILAAAKNPDYIKLIDQALESSRKSLPAGFSESELIKETIDQVSVFFGKEILNLISGRVSTEVDARLSFDTEATVTKARKLINHYKSFGINKERILIKIASTWEGIKAAEILEKEGIKCNLTLLFNFCQAVACANAKITLISPFVGRILDWHKAKTGKDNFAGCEDPGVISVTKIYNYFKEKGFKTEVMGASFRNIDEIKELAGCDLLTIAPKFLDELNREEGELIKKLDEDTQSQSSIDYKFDEKDFRLSMLEDQMASEKLSEGITGFSKAIEELEELLLKRLSEINNQKLISTT”, the protein production result is reported as “failed”.

On to “MKSKFLTMKLILGALVLSFSCACSSSNSEEAMPQTAIGRQLVESGMANDVTLDNESVVRDGIKLNELAFKTFGESQHIFVATIDLNELTFTPATKDDKNVPATGPESSAPLPIHAFAAEANGKTVWLGVNGDYYADNPRRVMGLFYKDGVCINSQYFEGHDEVLYQLKNGETYVGQADEALAHEANLLHALGGYGLLVKDGVVQNFYEEMGDLQNTHPRTSVGLSQDRKTMYVFVVDGRRKDSFFALGLTLPHLATMMKAVGCYNAINLDGGGSTTLIIRKVNDGGKPTFPILNTPADDRVPRKVTNSMLIIEKK”, for which the protein production entry is recorded as “failed”.

As to “MKSKNQFFVSLLLKSTLVFSSFLMFADISRGQATVSISQQKILAQALTNQEREELTRLRAEKGERAQIQADFEQAFSRTTVLLNIWLVILSLFPVAIIALFWLLRRVAIREIVNRAMSQFEGIEKLETQLIIVKQDAENLIQDAKSINRLLEREIESLQQKIKIEQENLSVVTSELLQAKTDNLAQITTEIANFQSKLESLVGEFAHRLTQSDSDTKKQRDITLENIIKIESLLEVQLTELQKEAERHQKAVLGNIDTAGVDFNNYLINLQAEAQKNKNSVFEDFSHFQAELQGDLQQQKDIQLGNIQEVANIFNNQVSELQLEAQKQKDSLDNNLNKLHTDAQIRKDKIIHRLEELKDLFQAQVAELQIQTQQELASYLSELKIDTGNSKEKIIEELEKSGSEFVSQFSELQHNAQQQKLLILQKLEKLETDFVNQLSELQLDAQRRKDVILQELAENQPPVVVEAQPIHKDQLEVLVNENEQPQLSFDECIEQGDSLFSQKSYEEAITCYEQAVKIQQDNAVAWFKHGLTLARLKRFKDAIKSYHQAIKIKPDYHQAWCDLGVAFGNIRRHQEAFAAFDKATQVKPDDAVVWLNRGLALIELEEYEEAIASFDQALELQPNSPKIWDKRGYSLVRLGRDDEAITSFNQALEIKPEYASAYYNKAACYAMQGDVNSSLENLQQAIILNPKYKEDAATDIDFDEIAGDEKFKQLIATIGIRFDF”, the protein production result is given as “failed”.

Turning to “MKSKTIRRWSFIHTWTSLICTVFLLMLALTGLPLIFHHEIDHLLGDSPELREMPADTPHLDLQQLVKAAEAHRPGEVMQYFGWDEDEPNGVMTIMARTAGTEPNASHTFMLDARTGEAVAMPSANGGLMMVMLRLHVDMFAGLPGKLLLAFMGILFVLAIISGTVLYLPFMRRLKFATVRQDKSSRLRWLDLHNLIGVVTLTWALVVGVTGVISACADLIIAAWRNDSLSAMVAPYRDAPPLTSLAPASRLLDIAREAAPGMQPDFIAFPGTRFSSEHHYAVFLKGSSHLTSHLLTPVLIDASSLQVTAVAGRPWYMDAMGMSQPLHFGDYGGMPMKVLWAAMDMLTIIVLGSGLYLWLARRRAGKSMPQVRP”, the protein production result is reported as “failed”.

As to “MKSLGRHLVAEFYECDREVLDNVQLIEQEMKQAAYESGATIVTSTFHRFLPYGVSGVVVISESHLTIHTWPEYGYAAIDLFTCGEDVDPWKAFEHLKKALKAKRVHVVEHERGRYDEIGIPEDSPHKAAV”, the protein production entry is listed as “not failed”.

On to “MKSLIIGANGGVGQHLVRKLKARDVDFTAGVRKEEQVEALKADGIDATYIDVAKQSIDELIELFKSYDQILFSVGSGGSTGDDQTIIVDLDGAVKAIKASEQIDHQHFIMVSTYDSRREAFDASGDLKPYTIAKHYADDYLRHANLKYTIVHPGALTNEHETQQFNMSAQFENVQNPSITREDVAEVLVSVLTDEVLQGHEFQIINGDLSLLDATTKYLEE”, for which the protein production entry is “failed”.

As for “MKSLQIYLFLFLSVFALGACIQNDIPYPYIKGEITAFEVEGQTGDAEINKNSRTIVVEVGDEVDIEELRITRFVVNEEATYSIDEQYCVSPNKFPSAGFSALADLPAGADTRVDFSKTVPVLLRTYQDYQWMITVKQTIERVVEVENQALPAIIDDKNHTVLVYVSQKQDLSAVKITKMILGGSKATITPDPSTVTNFRRPQEFVVNRFDKEELWTVDVVRTTSTGTTGSADVWATRATLNGGMKQGTTPRVEYRKKSEDTWTVVPETDVKLESGTTFSTTLTGLQDGTDYVWRVVVEEVPSTESGFTTEKIQEIPNLNFDTWSQNPTGTFKKSWYPNADGSNSFWATGNDGVTSSLAGSRDSSTRPEEKSVVNGKAAYMVTLGSVPLVGVAAGNLFIGDYKTNAQSPLEHHHHHH”, the protein production result is given as “failed”.

“MKSQISWKVGGQQGEGIESTGEIFATAMNRKGYFLYGYRHFSSRIKGGHTNNKIRVSKSPVHAISDDLDILIAFDQETIELNHHEMREDSIIIADSKAKPQKPENCVAQLIELPFTSTAKELGTALMKNMVAIGATSALMDLNTSTFETLIDNMFSKKGNKVVDMNIQALNMGYDLMKQQVTNVNGDFTLENGSGHPHLYMIGNDAIGLGAIAAGSRFMSAYPITPASEIMEYMIANLPKVDGTVVQTEDEIAAATMAIGANYAGVRGFTASAGPGLSLMMESIGLSGMTETPLVIINTQRGGPSTGLPTKQEQSDLMQMIYGTHGDIPKIVVAPTDAEDAFYLTMEAFNLAEEYQCPVILLSDLQLSLGKQTVKTLDYNKIDIRRGEIIQSDIERAEDDKAYFKRYALTASGVSPRPIPGVKGGIHHVTGVEHNEEGKPSEAPMNRQNQMEKRMRKTESLVINNPVLLNEHEDEADILYIGFISTKGAIGEGAERLERHGVKVNTMHIRQLHPFPKDIVQQAINKASKVIVAEHNYQGQLSSILKMNTQVNDKLVNQTKYDGKPFLPYEIEEKGLEIAKELKELV”: the protein production result is “failed”.

“MKSRREQSIEEAIVANYLKMMIDNVNVWPRHFLRSEDVYCKNPWTLFVTRDPIILHFGRYFFVNRSVNSGLTDGCEYGCWRIIGRDRVIKSVTTGKILGLKKVYKFCETDRKPKSVFKFLEKEKRRVRDRRIWAMEEYRFASTWKQDYVICKIRRLYPQPFDYMLAQHIRGYYK”: the protein production entry is given as “failed”.

Take “MKSTAEYLEDPEQAADRALSLLQDLGGLSAAAAWGRSGVMWRRLAGFGDLAGLPDGAALAAGERPPAGGAMAMRAGDGALGWLAWQGKPPGQMETVAELLAGHLQCEALRAEQAATRVANETMLEISLLAGECPTLDRLLPRLHRLMQRLMDADNFYIALCGDDRSTLSFPFYADRREASPPDPERAFPIAGPDVSLTAWLIRGGAPMVLTGERIEALCRQEALARPANLPAFWMGAPLRNAADELIGAAVLQRYDDQPPLTSAEQLLFMFAARHVGFALDRVLYHRRLERQVALRTSELEGANARLRAEVASRKRAEKFQDVLFRIAELSNTSLSLEAFLSGLHRLLLEMVAARNCVVALYDMGSDLISFPYCADEYAPALKPRKPGKGLIEQVLHSGRPLLLDPYGSLQGMAAAEGATPPKSWLGVPLYCDHELLGVLAVQSYDGDVVYGYRDQEVLEFVANHIGTALARVRALESLQHAYADLEQRVRERTSELDAVNAQLEFDSLHDPLTKLPNRNYFSKALRRAWDAYLDGGDRFAVVFIDLDRFKLVNDTLGHLAGDHLLFEAGARIRSCLRHYDFLARLGGDEFAVLMFGMDAVDECEVIARRIVSEFERPVVLAGREVFSTASVGVVLADSEHYHKADDLLRDADHAMYCTKQQGRQGYTLFSHQLRIDQADQLALETELRRALEEEGQLVPYYQPFIAAATGALAGFETLVRWQHPQRGLVSPGVFLPVAEESGLITRLDRYMINAACAQLQAWRAEGRVGEGIALHINLSSANFRDPDLVGWIGERIAHYRLPPAMLHLEITESALIDQPEAAATAMQALHGLGVRLALDDFGTGYSALSYLHRYRFDVLKIDQSFVFDLDRKQESVAIVRAILALARALDLEVVAEGVETASQSAMLKEMGCGMLQGFHFAAPAPAWALDWDKLARFAEGPGRVA”: the protein production result is reported as “failed”.

With “MKSTLIVIGNIILVILILFIYTMLWYYIGAKGKGIIFGVNLRKKEGLKAVAYWGIFWFLAFSFILSVASRSTISINNKITGILTYLGAISLALFCYLIIIFPITDLIRFILNKLGFSGSLREYMSIIYGRGISIFIAVIIIILFGFWHAIHQTTTNYNISINKKAGKLKQLNVVMVSDVHMGIMIRERGIDKLVTSINKLKPDVVFFCGDMVDESTPTSLEKYYSSAFKEIISKYGVYAITGNHEYATQNSEVAMNYMKKADIKVLEDKAVKVDNSFYVIGRNDAAGGKVKPLNEIMKNADKRLPIIALNHRPVALEEAEKNGVDLQLSGHTHEGQIFPFNFTTKLVFEDDYGYLKKKDFNLIVTSGYGTWGPPIRIGTKGEIVNIKIDFMN”, the protein production result is “failed”.

Regarding “MKTAKRRAFAFATFAIAGLAACENTSSPSLPKDQVMAPGVDLRAAAKQDSSEAVEAGHRMIAAGEYELALRAFNRAALSRGALDAEILSGLGTANLGLGRLGQAEELLRRAVRDDAAQPVDYNNLGVLLMEQGNTAEALQYFRRAFALSNGENIAIRDNLRLALAKTENSATLEAEKSSEYKLVRRGNSDFVIRPTP”, the protein production result is “failed”.

With “MKTDFSLTQLADPDIAEADKILRACVHCGFCTATCPTYVLLGDELDSPRGRIYLIKEMLESDKPPTADVVKHIDRCLSCLACMTTCPSGVNYMHLVDQARVRIEKQYQRPFWDRVVREALSWMMPHPGMFRLGMWAARIVRPVAALLPGSHNLTHPTLLSRIKAMLALAPKHLPEPGPDSGTTFPAVGPKRGRVALLHGCAQQVLAPRINRAAINLLTRHGIEVVLAADEACCGALIHHLGRDTRTLEYARTNIKAWLAEIERGGLDAILVTTSGCGTVIKDYGYMLREDPEYAAAAAKVSALAKDISEYVSGLELSLPRPHDDVVVAYHSACSLQHGQKITQIPKELLSKTGFVVKDIPESHLCCGSAGTYNILQPDIATRLRDRKVANIASVKPDMIAAGNIGCMVQIASGTEVPVVHTIELLDWATGGPRPAPH”, the protein production entry is given as “failed”.

As to “MKTGKELKPGTVIRIDNDPWLVQKAEFTKSGRNSAIMKTKLKNLLTGYKTETVYGADDKLDDVILDRKEATLSFISGDTYTFMDTTDYTMYELNAEDIEAVLPFIEEGMTDVCEAVFFEDRLVSVDLPTTIVRQVDYTEGSARGDTSGKVMKPAKLKNGTELSVADFIEIGDMIEIDTREGGSYKGRAKV”, the protein production entry was “failed”.
